Reference: patent US20220363757A1 (SYMPHOGEN A S, published 2022)
Where a chain is given by its changes, count along the chain named.

T1: human LAG-3 domain 1-2 Fc fusion, point mutation #48 V101A (human, UniProt P18627 23-266)
T1 construct: not shown: human IgG1 Fc, AA P101-K330
T1 sequence: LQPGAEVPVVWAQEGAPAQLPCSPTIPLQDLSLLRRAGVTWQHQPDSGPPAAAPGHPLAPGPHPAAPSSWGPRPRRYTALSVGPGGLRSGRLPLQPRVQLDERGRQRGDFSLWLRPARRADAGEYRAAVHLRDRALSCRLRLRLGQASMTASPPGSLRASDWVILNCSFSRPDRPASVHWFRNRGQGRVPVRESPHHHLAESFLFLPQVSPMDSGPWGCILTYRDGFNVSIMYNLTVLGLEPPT

T2: human LAG-3 domain 1-2 Fc fusion, point mutation #56 G112A (human, UniProt P18627 23-266)
T2 construct: not shown: human IgG1 Fc, AA P101-K330
T2 sequence: T1 sequence with A79V, G90A

T3: human LAG-3 domain 1-2 Fc fusion, point mutation #12 R57A (human, UniProt P18627 23-266)
T3 construct: not shown: human IgG1 Fc, AA P101-K330
T3 sequence: T1 sequence with R35A, A79V

T4: human LAG-3 domain 1-2 Fc fusion, point mutation #19 D68A (human, UniProt P18627 23-266)
T4 construct: not shown: human IgG1 Fc, AA P101-K330
T4 sequence: T1 sequence with D46A, A79V

T5: human LAG-3 domain 1-2 Fc fusion, point mutation #31 P84A (human, UniProt P18627 23-266)
T5 construct: not shown: human IgG1 Fc, AA P101-K330
T5 sequence: T1 sequence with P62A, A79V

T6: human LAG-3 domain 1-2 Fc fusion, point mutation #34 A87S (human, UniProt P18627 23-266)
T6 construct: not shown: human IgG1 Fc, AA P101-K330
T6 sequence: T1 sequence with A65S, A79V

T7: human LAG-3 domain 1-2 Fc fusion, point mutation #37 S90A (human, UniProt P18627 23-266)
T7 construct: not shown: human IgG1 Fc, AA P101-K330
T7 sequence: T1 sequence with S68A, A79V

T8: human LAG-3 domain 1-2 Fc fusion, point mutation #39 W92A (human, UniProt P18627 23-266)
T8 construct: not shown: human IgG1 Fc, AA P101-K330
T8 sequence: T1 sequence with W70A, A79V

T9: human LAG-3 domain 1-2 Fc fusion, point mutation #42 R95A (human, UniProt P18627 23-266)
T9 construct: not shown: human IgG1 Fc, AA P101-K330
T9 sequence: T1 sequence with R73A, A79V

B1: Fab fragment of antibody 15532 (Fab, V domains shown, not shown: a dimerising Fc or GST)
VH: QVQLQQWGAGLLRPSETLSLTCAVYGESFSGYYWNWIRQPPGKGLEWIGEINHSGSTNYNPSLKSRVTISVDTSKTQFSLKLSSVTAADTAVYYCARGWDLLDWNDYWNEYWGQGTLVTVSS
VL: EIVLTQSPATLSLSPGERATLSCRASQSVSSYLAWYQQKPGQAPRLLIYDASNRATGIPARFSGSGSGTDFTLTISSLEPEDFAVYYCQQRSNWPLTFGGGTKVEIKR
notes: monomeric Fab made by GingisKHAN digestion of the IgG1
B2: Fab fragment of antibody 15011 (Fab, V domains shown, not shown: a dimerising Fc or GST)
VH: EVQLLESGGGLVQPGGSLRLSCAASGFDFRSYAMMWVRQAPGKGLEWVGGINGEVGGSNTYYAPAVKGRATISRDNSKNTLYLQMNSLRAEDTAVYYCVKGAGACGICNDDIDAWGQGTLVTVSS
VL: SYELTQDPAVSVALGQTVRITCSGAGSYAGSYYYGWHQQKPGQAPVTVIYDNDKRPSNIPDRFSGSSSGNTASLTITGAQAEDEADYYCGSTNDNDDGGLFGSGTKVTVLG
notes: as for B1
B3: Fab fragment of antibody 15431 (Fab, V domains shown, not shown: a dimerising Fc or GST)
VH: QVQLQQSGPGLVKPSQTLSLTCAISGDSVSSNSAAWNWIRQSPSRGLEWLGRTYYRSKWYNDYAVSVKSRITINPDTSKNQFSLQLNSVTPEDTAVYYCARDDDWNDFDYWGQGTLVTVSS
VL: B1 VL
notes: as for B1
B4: Fab fragment of antibody 15572 (Fab, V domains shown, not shown: a dimerising Fc or GST)
VH: QLQLQESGPGLVKPSETLSLTCTVSGDSISSSSYYWGWIRQPPGKGLEWIGSIFYSGNTYYNPSLKSRVTISVDTSKNQFSLKLSSVTAADTAVYYCAREDDFLTDYYGAFDIWGQGTMVTVSS
VL: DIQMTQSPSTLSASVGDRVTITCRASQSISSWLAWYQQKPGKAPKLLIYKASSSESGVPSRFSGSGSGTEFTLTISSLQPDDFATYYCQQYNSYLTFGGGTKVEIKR
notes: as for B1

Tests used:
Assay in all cases: SPR, Fab over captured mutant LAG-3-Fc;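 note: fc fusion variants captured on anti-human IgG Fc sensor, Fab injected with association then dissociation phases, KD obtained from Langmuir one-to-one fit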
[1] = target: T1, human LAG-3 domain 1-2 Fc fusion, point …
[2] = target: T2, human LAG-3 domain 1-2 Fc fusion, point …
[3] = target: T3, human LAG-3 domain 1-2 Fc fusion, point …
[4] = target: T4, human LAG-3 domain 1-2 Fc fusion, point …
[5] = target: T5, human LAG-3 domain 1-2 Fc fusion, point …
[6] = target: T6, human LAG-3 domain 1-2 Fc fusion, point …
[7] = target: T7, human LAG-3 domain 1-2 Fc fusion, point …
[8] = target: T8, human LAG-3 domain 1-2 Fc fusion, point …
[9] = target: T9, human LAG-3 domain 1-2 Fc fusion, point …

| Binder | KD mutant/KD wild type [1] | KD mutant/KD wild type [2] | KD mutant/KD wild type [3] | KD mutant/KD wild type [4] | KD mutant/KD wild type [5] | binding result [6] | KD mutant/KD wild type [7] | binding result [8] | KD mutant/KD wild type [9] | KD mutant/KD wild type [6] | KD mutant/KD wild type [8] | binding result [1] | binding result [4] |
| --- | --- | --- | --- | --- | --- | --- | --- | --- | --- | --- | --- | --- | --- |
| B1 | 3.5 fold | 1 fold | 1.1 fold | 3.4 fold | 0.5 fold | no binding (tested: 300 nM) | 0.6 fold | no binding (tested: 300 nM) | 3.7 fold |  |  |  |  |
| B2 | 0.5 fold | 3.1 fold | 0.7 fold | 0.6 fold | 1 fold |  | 0.9 fold |  | 0.7 fold | 1 fold | 1.1 fold |  |  |
| B3 |  | 0.5 fold | 0.6 fold |  | 1.1 fold |  | 0.9 fold |  | 1.9 fold | 1 fold | 3.6 fold | no binding (tested: 300 nM) | no binding (tested: 300 nM) |
| B4 |  | 0.5 fold | 0.8 fold |  | 0.9 fold |  | 0.8 fold |  | 0.6 fold | 0.9 fold | 1 fold | no binding (tested: 300 nM) | no binding (tested: 300 nM) |
